According to US20220273679A1, “METHODS AND COMPOSITIONS FOR TREATING AND PREVENTING DAMAGE TO SKIN” (New York Society for the Relief of the Ruptured and …, priority 2019, published 2022):

B1: EGF: EGFR-ligand cited as stimulating ADAM17 (protein, UniProt P01133 23-1207, looked up)
Pro-epidermal growth factor: PQHWSCPEGTLAGNGNSTCVGPAPFLIFSHGNSIFRIDTEGTNYEQLVVDAGVSVIMDFHYNEKRIYWVDLERQLLQRVFLNGSRQERVCNIEKNVSGMAINWINEEVIWSNQQEGIITVTDMKGNNSHILLSALKYPANVAVDPVERFIFWSSEVAGSLYRADLDGVGVKALLETSEKITAVSLDVLDKRLFWIQYNREGSNSLICSCDYDGGSVHISKHPTQHNLFAMSLFGDRIFYSTWKMKTIWIANKHTGKDMVRINLHSSFVPLGELKVVHPLAQPKAEDDTWEPEQKLCKLRKGNCSSTVCGQDLQSHLCMCAEGYALSRDRKYCEDVNECAFWNHGCTLGCKNTPGSYYCTCPVGFVLLPDGKRCHQLVSCPRNVSECSHDCVLTSEGPLCFCPEGSVLERDGKTCSGCSSPDNGGCSQLCVPLSPVSWECDCFPGYDLQLDEKSCAASGPQPFLLFANSQDIRHMHFDGTDYGTLLSQQMGMVYALDHDPVENKIYFAHTALKWIERANMDGSQRERLIEEGVDVPEGLAVDWIGRRFYWTDRGKSLIGRSDLNGKRSKIITKENISQPRGIAVHPMAKRLFWTDTGINPRIESSSLQGLGRLVIASSDLIWPSGITIDFLTDKLYWCDAKQSVIEMANLDGSKRRRLTQNDVGHPFAVAVFEDYVWFSDWAMPSVMRVNKRTGKDRVRLQGSMLKPSSLVVVHPLAKPGADPCLYQNGGCEHICKKRLGTAWCSCREGFMKASDGKTCLALDGHQLLAGGEVDLKNQVTPLDILSKTRVSEDNITESQHMLVAEIMVSDQDDCAPVGCSMYARCISEGEDATCQCLKGFAGDGKLCSDIDECEMGVPVCPPASSKCINTEGGYVCRCSEGYQGDGIHCLDIDECQLGEHSCGENASCTNTEGGYTCMCAGRLSEPGLICPDSTPPPHLREDDHHYSVRNSDSECPLSHDGYCLHDGVCMYIEALDKYACNCVVGYIGERCQYRDLKWWELRHAGHGQQQKVIVVAVCVVVLVMLLLLSLWGAHYYRTQKLLSKNPKNPYEESSRDVRSRRPADTEDGMSSCPQPWFVVIKEHQDLKNGGQPVAGEDGQAADGSMQPTSWRQEPQLCGMGTEQGCWIPVSSDKGSCPQVMERSFHMPSYGTQTLEGGVEKPHSLLSANPLWQQRALDPPHQMELTQ
modifications: Pro-epidermal growth factor
notes: EGFR-ligand cited as stimulating ADAM17
B2: heparin-binding EGF-like growth factor (protein)
chain: DLQEADLDLLRVTLSSKPQALATPNKEEHGKRKKKGKGLGKKRDPCLRKYKDFCIHGECKYVKELRAPSCICHPGYHGERCHGLSL

Experiments:
ADAM17 = conditions: mouse embryonic fibroblasts; cited from earlier work
LC-Ad17 mice = test: UVR-induced keratinocyte apoptosis and monocyte numbers in ears of LC-Ad17 mice; format: in vivo, mouse; conditions: applied on ears prior to UVR, 24 hours
Experimental: FIGS. 5A-5H. LC-derived ADAM17 limits UVR-induced keratinocyte apoptosis and skin injury. (5A-5D) Graphs showing WT and LC-Ad17 mice were treated with UVR and analyzed at indicated time points. (5A) Graph showing activated caspase-3+ keratinocytes (n=3-5 mice). […] (5C) Graph showing epidermal thickness (n=3-4 mice). (5D) Graph showing quantification of epidermal permeability (n=3-5 mice). (5E,5F) Vehicle or HB-EGF was applied on the ears prior to UVR exposure (n=3-4 mice). (5E) Graph showing activated caspase-3+ keratinocytes. (5F) Graphs showing absolute (left) and normalized (right) monocyte numbers. (5G,5H) Effect of LC Adam17 deletion or ADAM17 blockade on keratinocyte survival in vitro. Murine keratinocytes with LCs from indicated mice (5G) and human keratinocytes with control-IgG or anti-ADAM17-treated LCs (5H) were exposed to UVR and examined at 24 hours (n=3 mice or 4 human donors). Data are from 3 (5E-5G), 4 (5A), 2 (5H), 5 (5B), and 1 (5C,5D) independent experiments. Bars represent means (5A,5B,5D-H) or medians (5C).

MRL-Faslpr mice = test: Multi-day UVR lesion development in MRL-Faslpr SLE model mice with topical treatment; format: in vivo, mouse
Experimental: FIGS. 8A-8C. Topical EGFR ligand reduces photosensitivity. (8A) Experimental scheme for (B-C) (n=4 mice). MRL-Faslpr mice ears and back skin were topically treated with HB-EGF for 2 days before and on the first day of UVR exposure and examined 24 hours after the final exposure. Ears were treated with Control plus vehicle, UVR plus vehicle, UVR+ HB-EGF and MRL-MpJ UVR+ vehicle. The MRL-MpJ ear represents a non-SLE control. (8C) Graph of ear histopathology scores. (8C) Graph of absolute monocyte numbers. Data are from 3 independent experiments. Bars represent means.
FIGS. 18A-18B. EGFR ligand application reduces the severity of UVR-induced skin lesions and lymph node B cell responses in SLE model mice. Mice were treated with HB-EGF (n=4 mice). Lesional areas are seen in magnified images of back lesions (not shown). Neutrophil-dominant infiltrate and ulceration are seen in H&E images of ear skin (not shown). (18A, 18B) Germinal center B cell (18A) and plasma cell (18B) numbers in skin draining lymph nodes (auricular and inguinal) normalized to mice treated with UVR+ vehicle. Each symbol represents either inguinal or auricular lymph nodes from multiple mice. Data from 2 independent experiments. Bars represent means.
The remaining hair on the back skin of the mice was removed using Nair and photographs were taken. The total back area and lesional area (skin affected by erythema, scaliness, crustiness, or epidermal erosion) was measured by a blinded observer using ImageJ software and skin lesions were quantified as percent of back area.
Skin histopathology scoring: A blinded expert dermatopathologist scored H&E stained sections based on dermal inflammation (0-3).

Langerin-DTA mice = test: UVR-induced keratinocyte apoptosis and monocyte accumulation in ears of Langerin-DTA mice; conditions: 2 ug per ear 15 minutes prior to UVR, 24 hours after UVR
Experimental: (3C,3D) Mouse ears were treated with vehicle or HB-EGF prior to UVR and examined 24 hours after UVR (n=3-4 mice). (3C) Graph of activated caspase-3+ keratinocytes. (3D) Graph of absolute (left) and normalized (right) monocyte numbers. […] Bars represent means. Error bars depict standard deviations.
For indicated 24 hour experiments, HB-EGF (2 ug; R&D Systems) dissolved in dimethyl sulfoxide (DMSO) was applied to each ear 15 minutes prior to UVR exposure.
For immunofluorescence staining of murine skin, frozen unfixed mouse skin was sectioned, fixed with cold acetone for 10 minutes, and stained as indicated (15). Epidermal activated caspase-3+ cells per high powered field (40× magnification) were quantified by a blinded observer using ImageJ software (NIH) and classified as activated caspase-3+ keratinocytes (Langerin− and CD3−), LCs (Langerin+), or T cells (CD3+).

[1] = MRL-Faslpr mice, topical, multi-day UVR
[2] = MRL/lpr lupus model, topical application

Row | Molecule | ADAM17 activation (ADAM17) | UVR-induced skin inflammation (monocyte numbers) (LC-Ad17 mice) | increased UVR-induced keratinocyte apoptosis (LC-Ad17 mice) | severity of UVR-induced skin lesions (MRL-Faslpr mice; MRL-Faslpr mice, topical on ears and back for three consecutive days, 6 days UVR) | germinal center B cells in skin-draining lymph nodes (MRL-Faslpr mice; [1]) | plasma cells in skin-draining lymph nodes (MRL-Faslpr mice; [1]) | monocyte accumulation (MRL-Faslpr mice; MRL-Faslpr mice, topical, multi-day UVR, 24 hours after final exposure) | photosensitivity (MRL-Faslpr mice; [2]) | skin-draining lymph node (B cell) responses (MRL-Faslpr mice; [2]) | skin-draining lymph node (B cell) responses (MRL-Faslpr mice; MRL/lpr lupus model, topical application, listed as Hb-EGF) | UVR-induced apoptotic keratinocyte accumulation (Langerin-DTA mice) | UVR-induced monocyte accumulation (Langerin-DTA mice)
1 | B1 | activated |  |  |  |  |  |  |  |  |  |  | 
2 | B2 |  | dampened | dampened | reduced the severity | reduced | reduced | reduced | reduces | reduction | reduces | reduced | reduced
